Reference: the Human Domainome abundance scans (Beltran et al. 2025)
± gives the uncertainty stated by the source.

B1: Myocardin, residues 363 to 406; numbered along this chain, Q8IZQ8 (parent)
chain: KPGPLPPNLDDLKVSELRQQLRIRGLPVSGTKTALMDRLRPFQD

Variants of: B1
Experiment: abundance fitness (aPCA) (normalised: wild type 0, dead -1); higher = more abundant; growth selection in yeast, the domain comes from the species named
Conditions: Homo sapiens

Question: Which abundance fitness does the source give for KPGPLPPNLKDLKVSELRQQLRIRGLPVSGTKTALMDRLRPFQD [D10K] here?
Answer: -0.076 ± 0.11

Question: With KPGPLPPNLRDLKVSELRQQLRIRGLPVSGTKTALMDRLRPFQD [D10R] as the variant, how does the abundance fitness read?
Answer: -0.147 ± 0.065

Question: Which abundance fitness does the source give for KPGPLPPNLFDLKVSELRQQLRIRGLPVSGTKTALMDRLRPFQD [D10F] here?
Answer: -0.582 ± 0.36

Question: For KPGPLPPNLYDLKVSELRQQLRIRGLPVSGTKTALMDRLRPFQD [D10Y], which abundance fitness is on record?
Answer: 0.026 ± 0.32

Question: With KPGPLPPNLNDLKVSELRQQLRIRGLPVSGTKTALMDRLRPFQD [D10N] as the variant, how does the abundance fitness read?
Answer: -0.078 ± 0.17

Question: With KPGPLPPNLEDLKVSELRQQLRIRGLPVSGTKTALMDRLRPFQD [D10E] as the variant, how does the abundance fitness read?
Answer: 0.287 ± 0.071

Question: Which abundance fitness does the source give for KPGPLPPNLHDLKVSELRQQLRIRGLPVSGTKTALMDRLRPFQD [D10H] here?
Answer: -0.315 ± 0.13

Question: Which abundance fitness does the source give for KPGPLPPNLADLKVSELRQQLRIRGLPVSGTKTALMDRLRPFQD [D10A] here?
Answer: 0.178 ± 0.081

Question: With KPGPLPPNLWDLKVSELRQQLRIRGLPVSGTKTALMDRLRPFQD [D10W] as the variant, how does the abundance fitness read?
Answer: 0.104 ± 0.082

Question: Which abundance fitness does the source give for KPGPLPPNLGDLKVSELRQQLRIRGLPVSGTKTALMDRLRPFQD [D10G] here?
Answer: 0.311 ± 0.058

Question: For KPGPLPPNLPDLKVSELRQQLRIRGLPVSGTKTALMDRLRPFQD [D10P], which abundance fitness is on record?
Answer: -0.552 ± 0.16

Question: With KPGPLPPNLVDLKVSELRQQLRIRGLPVSGTKTALMDRLRPFQD [D10V] as the variant, how does the abundance fitness read?
Answer: 0.076 ± 0.068

Question: For KPGPLPPNLSDLKVSELRQQLRIRGLPVSGTKTALMDRLRPFQD [D10S], which abundance fitness is on record?
Answer: -0.257 ± 0.075

Question: For KPGPLPPNLTDLKVSELRQQLRIRGLPVSGTKTALMDRLRPFQD [D10T], which abundance fitness is on record?
Answer: -0.178 ± 0.29

Question: With KPGPLPPNNDDLKVSELRQQLRIRGLPVSGTKTALMDRLRPFQD [L9N] as the variant, how does the abundance fitness read?
Answer: -0.871 ± 0.3

Question: Which abundance fitness does the source give for KPGPLPPNTDDLKVSELRQQLRIRGLPVSGTKTALMDRLRPFQD [L9T] here?
Answer: -0.731 ± 0.12

Question: Which abundance fitness does the source give for KPGPLPPNPDDLKVSELRQQLRIRGLPVSGTKTALMDRLRPFQD [L9P] here?
Answer: -0.513 ± 0.12

Question: For KPGPLPPNIDDLKVSELRQQLRIRGLPVSGTKTALMDRLRPFQD [L9I], which abundance fitness is on record?
Answer: -0.289 ± 0.088

Question: With KPGPLPPNWDDLKVSELRQQLRIRGLPVSGTKTALMDRLRPFQD [L9W] as the variant, how does the abundance fitness read?
Answer: -0.615 ± 0.1

Question: With KPGPLPPNRDDLKVSELRQQLRIRGLPVSGTKTALMDRLRPFQD [L9R] as the variant, how does the abundance fitness read?
Answer: -0.524 ± 0.058

Question: For KPGPLPPNHDDLKVSELRQQLRIRGLPVSGTKTALMDRLRPFQD [L9H], which abundance fitness is on record?
Answer: -0.542 ± 0.15

Question: With KPGPLPPNDDDLKVSELRQQLRIRGLPVSGTKTALMDRLRPFQD [L9D] as the variant, how does the abundance fitness read?
Answer: -0.873 ± 0.15

Question: For KPGPLPPNMDDLKVSELRQQLRIRGLPVSGTKTALMDRLRPFQD [L9M], which abundance fitness is on record?
Answer: -0.543 ± 0.13

Question: With KPGPLPPNQDDLKVSELRQQLRIRGLPVSGTKTALMDRLRPFQD [L9Q] as the variant, how does the abundance fitness read?
Answer: -0.278 ± 0.083

Question: With KPGPLPPNGDDLKVSELRQQLRIRGLPVSGTKTALMDRLRPFQD [L9G] as the variant, how does the abundance fitness read?
Answer: -0.491 ± 0.061

Question: For KPGPLPPNEDDLKVSELRQQLRIRGLPVSGTKTALMDRLRPFQD [L9E], which abundance fitness is on record?
Answer: -0.807 ± 0.1

Question: Which abundance fitness does the source give for KPGPLPPNCDDLKVSELRQQLRIRGLPVSGTKTALMDRLRPFQD [L9C] here?
Answer: -0.371 ± 0.19

Question: For KPGPLPPNVDDLKVSELRQQLRIRGLPVSGTKTALMDRLRPFQD [L9V], which abundance fitness is on record?
Answer: -0.024 ± 0.072

Question: Which abundance fitness does the source give for KPGPLPPNADDLKVSELRQQLRIRGLPVSGTKTALMDRLRPFQD [L9A] here?
Answer: -0.876 ± 0.12

Question: For KPGPLPPNKDDLKVSELRQQLRIRGLPVSGTKTALMDRLRPFQD [L9K], which abundance fitness is on record?
Answer: -0.741 ± 0.19

Question: With KPGPLPPNSDDLKVSELRQQLRIRGLPVSGTKTALMDRLRPFQD [L9S] as the variant, how does the abundance fitness read?
Answer: -0.605 ± 0.14

Question: For KPGPLPPALDDLKVSELRQQLRIRGLPVSGTKTALMDRLRPFQD [N8A], which abundance fitness is on record?
Answer: -0.187 ± 0.081

Question: Which abundance fitness does the source give for KPGPLPPWLDDLKVSELRQQLRIRGLPVSGTKTALMDRLRPFQD [N8W] here?
Answer: -0.915 ± 0.16

Question: Which abundance fitness does the source give for KPGPLPPCLDDLKVSELRQQLRIRGLPVSGTKTALMDRLRPFQD [N8C] here?
Answer: -0.342 ± 0.14

Question: With KPGPLPPPLDDLKVSELRQQLRIRGLPVSGTKTALMDRLRPFQD [N8P] as the variant, how does the abundance fitness read?
Answer: -0.541 ± 0.099

Question: With KPGPLPPRLDDLKVSELRQQLRIRGLPVSGTKTALMDRLRPFQD [N8R] as the variant, how does the abundance fitness read?
Answer: -0.116 ± 0.058

Question: Which abundance fitness does the source give for KPGPLPPMLDDLKVSELRQQLRIRGLPVSGTKTALMDRLRPFQD [N8M] here?
Answer: -0.274 ± 0.17

Question: With KPGPLPPQLDDLKVSELRQQLRIRGLPVSGTKTALMDRLRPFQD [N8Q] as the variant, how does the abundance fitness read?
Answer: -0.154 ± 0.12

Question: Which abundance fitness does the source give for KPGPLPPELDDLKVSELRQQLRIRGLPVSGTKTALMDRLRPFQD [N8E] here?
Answer: -0.232 ± 0.072

Question: With KPGPLPPHLDDLKVSELRQQLRIRGLPVSGTKTALMDRLRPFQD [N8H] as the variant, how does the abundance fitness read?
Answer: -0.373 ± 0.12

Question: Which abundance fitness does the source give for KPGPLPPSLDDLKVSELRQQLRIRGLPVSGTKTALMDRLRPFQD [N8S] here?
Answer: -0.444 ± 0.085

Question: Which abundance fitness does the source give for KPGPLPPILDDLKVSELRQQLRIRGLPVSGTKTALMDRLRPFQD [N8I] here?
Answer: -0.408 ± 0.23

Question: With KPGPLPPLLDDLKVSELRQQLRIRGLPVSGTKTALMDRLRPFQD [N8L] as the variant, how does the abundance fitness read?
Answer: -0.35 ± 0.06

Question: With KPGPLPPVLDDLKVSELRQQLRIRGLPVSGTKTALMDRLRPFQD [N8V] as the variant, how does the abundance fitness read?
Answer: -0.048 ± 0.063

Question: With KPGPLPPDLDDLKVSELRQQLRIRGLPVSGTKTALMDRLRPFQD [N8D] as the variant, how does the abundance fitness read?
Answer: -0.246 ± 0.068

Question: Which abundance fitness does the source give for KPGPLPPGLDDLKVSELRQQLRIRGLPVSGTKTALMDRLRPFQD [N8G] here?
Answer: -0.623 ± 0.064

Question: Which abundance fitness does the source give for KPGPMPPNLDDLKVSELRQQLRIRGLPVSGTKTALMDRLRPFQD [L5M] here?
Answer: -0.139 ± 0.15

Question: With KPGPGPPNLDDLKVSELRQQLRIRGLPVSGTKTALMDRLRPFQD [L5G] as the variant, how does the abundance fitness read?
Answer: -0.283 ± 0.059

Question: With KPGPSPPNLDDLKVSELRQQLRIRGLPVSGTKTALMDRLRPFQD [L5S] as the variant, how does the abundance fitness read?
Answer: -0.341 ± 0.12

Question: With KPGPIPPNLDDLKVSELRQQLRIRGLPVSGTKTALMDRLRPFQD [L5I] as the variant, how does the abundance fitness read?
Answer: 0.011 ± 0.18

Question: For KPGPNPPNLDDLKVSELRQQLRIRGLPVSGTKTALMDRLRPFQD [L5N], which abundance fitness is on record?
Answer: -0.276 ± 0.32

Question: With KPGPHPPNLDDLKVSELRQQLRIRGLPVSGTKTALMDRLRPFQD [L5H] as the variant, how does the abundance fitness read?
Answer: -0.311 ± 0.33

Question: For KPGPRPPNLDDLKVSELRQQLRIRGLPVSGTKTALMDRLRPFQD [L5R], which abundance fitness is on record?
Answer: -0.448 ± 0.062

Question: Which abundance fitness does the source give for KPGPKPPNLDDLKVSELRQQLRIRGLPVSGTKTALMDRLRPFQD [L5K] here?
Answer: -0.514 ± 0.19

Question: Which abundance fitness does the source give for KPGPQPPNLDDLKVSELRQQLRIRGLPVSGTKTALMDRLRPFQD [L5Q] here?
Answer: -0.131 ± 0.1

Question: Which abundance fitness does the source give for KPGPYPPNLDDLKVSELRQQLRIRGLPVSGTKTALMDRLRPFQD [L5Y] here?
Answer: -0.204 ± 0.18

Question: Which abundance fitness does the source give for KPGPTPPNLDDLKVSELRQQLRIRGLPVSGTKTALMDRLRPFQD [L5T] here?
Answer: -0.302 ± 0.087

Question: Which abundance fitness does the source give for KPGPWPPNLDDLKVSELRQQLRIRGLPVSGTKTALMDRLRPFQD [L5W] here?
Answer: -0.984 ± 0.13
